Test results taken from publication PMC11178655, “Dosimetry and pharmacokinetics of [^177Lu]Lu-satoreotide tetraxetan in patients with progressive neuroendocrine tumours” (European Journal of Nuclear Medicine and Molecular Imaging, 2024).
Where a SMILES comes first, the peptide text is derived from it. Bridges are numbered along the chain shown (N, C = ends). [ ]: non-standard residue; d: D form. The star is where a group is joined. DOTA = O=C(O)CN1CCN(CC(=O)O)CCN(CC(=O)*)CCN(CC(=O)O)CC1; dPhe(4-NHCONH2) = NC(=O)Nc1ccc(C[C@@H](N)C(=O)O)cc1; Dihydroorotyl(S) = O=C1C[C@@H](C(=O)*)NC(=O)N1; Phe(4-Cl) = N[C@@H](Cc1ccc(Cl)cc1)C(=O)O; Phe(4-NH2) = Nc1ccc(C[C@H](N)C(=O)O)cc1

Test system: patients with progressive, SSTR-positive NETs
Assay: Patient-specific image-based dosimetry (NUKDOS) of tumours and organs, phase I/II trial
Type: in vivo, human
Conditions: median (range)
Procedure: In both parts A and B of the study, patients underwent planar whole-body imaging at 4 h and 1, 2, 3, and 6 days after each [^177Lu]Lu-satoreotide tetraxetan treatment cycle. Patients in part A also underwent single-photon emission computed tomography/computed tomography (SPECT/CT) at 24 h after each [^177Lu]Lu-satoreotide tetraxetan cycle. Those in part B underwent SPECT/CT, immediately before or after planar scintigraphy, at 4 h, and 1, 2, 3, and 6 days after each [^177Lu]Lu-satoreotide tetraxetan administration. Full details of the image acquisition methodology are provided in the Supplementary Information.
Delineation of tumour volumes was performed on anatomical SPECT/CT images after each [^177Lu]Lu-satoreotide tetraxetan administration. Tumours with a longest diameter < 2 cm were not analysed due to the difficulty in correcting for partial volume effects caused by the limited spatial resolution of the SPECT/CT systems. For study inclusion in part A, one tumour lesion ≥ 2 cm must have been present for eligibility; in part B, two or more tumour lesions ≥ 2 cm must have been present, each with an uptake on SSTR imaging higher than that of normal liver parenchyma (target lesion on [^68Ga]Ga-DOTA-TATE or -DOTA-TOC positron emission tomography: maximum standardised uptake value [SUVmax] ≥ 2x the mean SUV [SUVmean] of liver background; or ^111In-scintigraphy/SPECT: Krenning score 3 or 4 [uptake > normal liver, or uptake > spleen or kidneys, respectively [26]]).
Reconstruction parameters were set up to produce isotropic voxels of < 5 mm; voxels were continuous throughout the field of view. Anatomic coverage of the acquisition was determined according to the patients’ tumour locations on the planar whole-body scan acquisition with liver, both kidneys and spleen in the same bed position. For organs showing [^177Lu]Lu-satoreotide tetraxetan uptake, regions of interest (ROIs)/volumes of interest (VOIs) were drawn manually over the whole organs of interest (whole body, left and right kidneys, liver, spleen, and bone marrow), using the NUKDOS software for planar whole-body scans and the SPECT/CT acquired in part A [27]. VOIs for the same organs were drawn for all SPECT/CT images acquired in part B. All ROIs/VOIs were then used for activity quantification. Time-integrated activity coefficients (TIACs) for a given source volume were computed by integrating the time-activity curves. Full details of the tumour delineation and activity quantification methodology are provided in the Supplementary Information.
Patient-specific dosimetry calculations were performed after each treatment cycle in both parts A and B, using the absorbed dose calculation features of the NUKDOS software for image-based dosimetry calculations. The NUKDOS software was chosen as it allowed for an integral approach to organ dosimetry (including image quantification, time-activity curve-fitting and dosimetry calculation). For the bone marrow, both image-based and blood-based calculations were performed in part A [28, 29]. In part B, only image-based bone marrow dosimetry was performed. Organ Level INternal Dose Assessment/EXponential Modelling (OLINDA/EXM) version 1.0 software, the most widely used version at the time of the study, was used to perform model-based dosimetry calculations, which were only performed after the first [^177Lu]Lu-satoreotide tetraxetan cycle for patients in part B. To generate organ-specific absorbed doses, TIACs were used as input data. Full details on OLINDA/EXM software settings and organ-specific TIAC calculation methods are provided in the Supplementary Information.
All images were acquired with a 20% energy window around the main photopeak of ^177Lu (208 keV). For scatter correction, the triple-energy window method was applied based on the recommendation of the Committee on Medical Internal Radiation Dose. Whole-body images were acquired with a scanning time of 20 cm/min in a 256 × 1,024 matrix. […]

[1] = Part A (4.5 GBq, 300 µg), image-based dosimetry, n = 11
[2] = Part A (4.5 GBq, 300 µg), n = 7
[3] = Part A (4.5 GBq, 300 µg), n = 9
[4] = Part A (4.5 GBq, 300 µg), n = 11
[5] = Part A (4.5 GBq/cycle), image-based dosimetry, n = 10
[6] = Part A (4.5 GBq/cycle), n/n-les 9/16
[7] = Part A and B, image-based dosimetry, n = 21
[8] = Part B Cohort 1 (6.0 GBq, reduced to 4.5 GBq after three patients; 300 µg), n = 6
[9] = Part B Cohort 1, image-based dosimetry, n = 1
[10] = Part B Cohort 3 (4.5 GBq, 300 µg), n = 9

## C[C@@H](O)[C@@H]1NC(=O)[C@H](CCCCN)NC(=O)[C@@H](Cc2ccc(NC(N)=O)cc2)NC(=O)[C@H](Cc2ccc(NC(=O)[C@@H]3CC(=O)NC(=O)N3)cc2)NC(=O)[C@H](NC(=O)[C@H](Cc2ccc(Cl)cc2)NC(=O)CN2CCN(CC(=O)O)CCN(CC(=O)O)CCN(CC(=O)O)CC2)CSSC[C@@H](C(=O)N[C@H](Cc2ccc(O)cc2)C(N)=O)NC1=O [[^177Lu]Lu-satoreotide tetraxetan, metal not drawn] ({DOTA}-[Phe(4-Cl)][dC][Phe(4-NH2)](Dihydroorotyl(S))[dPhe(4-NHCONH2)]KTC[dY]-NH2; disulfide 2-7 (inferred); C-terminus assumed)
[1]
  Cycle 1 ADC, Bone marrow: 0.1 (0.0–0.2) Gy/GBq
  Cycle 3 ADC, Bone marrow: 0.1 (0.0–0.2) Gy/GBq
[2]
  Cycle 1 ADC, Liver: 0.2 (0.1–0.3) Gy/GBq
  Cycle 3 ADC, Liver: 0.2 (0.1–0.4) Gy/GBq
[3]
  Cycle 1 ADC, Spleen: 0.8 (0.2–1.8) Gy/GBq
  Cycle 3 ADC, Spleen: 0.5 (0.3–1.0) Gy/GBq
[4]
  Cycle 1 ADC, Kidneys: 1.1 (0.5–1.9) Gy/GBq
  Cycle 1 ADC, Tumours: 2.6 (0.4–14.3) Gy/GBq
  Cycle 3 ADC, Kidneys: 1.0 (0.7–1.8) Gy/GBq
  Cycle 3 ADC, Tumours: 1.7 (0.3–5.0) Gy/GBq
[5]
  Ratio of ADCs Cycle 2/Cycle 1 (300 vs. 300 µg), Bone marrow: 89.5 (54.7–152) %
  Ratio of ADCs Cycle2/Cycle 3 (300 vs. 300 µg), Bone marrow: 109 (23.9–297) %
Part A (4.5 GBq/cycle), n = 9
  Ratio of ADCs Cycle 2/Cycle 1 (300 vs. 300 µg), Spleen: 93.0 (50.0–270) %
  Ratio of ADCs Cycle2/Cycle 3 (300 vs. 300 µg), Spleen: 127 (81.1–334) %
Part A (4.5 GBq/cycle), n = 11
  Ratio of ADCs Cycle 2/Cycle 1 (300 vs. 300 µg), Body: 108 (38.3–142) %
  Ratio of ADCs Cycle 2/Cycle 1 (300 vs. 300 µg), Kidney: 116 (55.8–140) %
  Ratio of ADCs Cycle2/Cycle 3 (300 vs. 300 µg), Body: 95.4 (69.5–119) %
  Ratio of ADCs Cycle2/Cycle 3 (300 vs. 300 µg), Kidney: 101 (80.6–179) %
[6]
  Ratio of ADCs Cycle 2/Cycle 1 (300 vs. 300 µg), Liver lesions: 91.8 (28.6–156) %
  Ratio of ADCs Cycle2/Cycle 3 (300 vs. 300 µg), Liver lesions: 127 (73.3–343) %
Part A (4.5 GBq/cycle), n/n-les 11/23
  Ratio of ADCs Cycle2/Cycle 3 (300 vs. 300 µg), All lesions: 125 (73.3–343) %
Part A (4.5 GBq/cycle), n/n-les 11/24
  Ratio of ADCs Cycle 2/Cycle 1 (300 vs. 300 µg), All lesions: 83.4 (28.6–156) %
[7]
  Cycle 3 ADC, Bone marrow: 0.1 (0.0–0.2) Gy/GBq
  Ratio of Cycle 3/ Cycle 1 ADCs, Bone marrow: 105 (22.4–400) %
Part A and B, image-based dosimetry, n = 29
  Cycle 1 ADC, Bone marrow: 0.1 (0.0–0.6) Gy/GBq
Part A and B, n = 7
  Ratio of Cycle 3/ Cycle 1 ADCs, Liver: 88.5 (43.8–132) %
Part A and B, n = 18
  Ratio of Cycle 3/ Cycle 1 ADCs, Spleen: 83.2 (40.9–231) %
Part A and B, n = 23
  Ratio of Cycle 3/ Cycle 1 ADCs, Tumours: 78.6 (16.0–195) %
Part A and B, n = 25
  Ratio of Cycle 3/ Cycle 1 ADCs, Kidneys: 98.6 (59.1–198) %
Part A and B, patient-specific dosimetry, n = 7
  Cycle 3 ADC, Liver: 0.2 (0.1–0.4) Gy/GBq
Part A and B, patient-specific dosimetry, n = 8
  Cycle 1 ADC, Liver: 0.2 (0.1–0.3) Gy/GBq
Part A and B, patient-specific dosimetry, n = 19
  Cycle 3 ADC, Spleen: 0.7 (0.3–1.5) Gy/GBq
Part A and B, patient-specific dosimetry, n = 24
  Cycle 3 ADC, Tumours: 4.0 (0.3–70.3) Gy/GBq
Part A and B, patient-specific dosimetry, n = 26
  Cycle 3 ADC, Kidneys: 0.8 (0.4–1.8) Gy/GBq
Part A and B, patient-specific dosimetry, n = 27
  Cycle 1 ADC, Spleen: 0.8 (0.2–1.8) Gy/GBq
Part A and B, patient-specific dosimetry, n = 33
  Cycle 1 ADC, Tumours: 5.0 (0.4–83.3) Gy/GBq
Part A and B, patient-specific dosimetry, n = 35
  Cycle 1 ADC, Kidneys: 0.9 (0.4–1.9) Gy/GBq
Part A, image-based dosimetry, n = 11
  Ratio of Cycle 3/ Cycle 1 ADCs, Bone marrow: 101 (22.4–302) %
Part A, n = 7
  Ratio of Cycle 3/ Cycle 1 ADCs, Liver: 88.5 (43.8–132) %
Part A, n = 9
  Ratio of Cycle 3/ Cycle 1 ADCs, Spleen: 61.5 (40.9–231) %
Part A, n = 11
  Ratio of Cycle 3/ Cycle 1 ADCs, Kidneys: 106 (59.1–139) %
  Ratio of Cycle 3/ Cycle 1 ADCs, Tumours: 76.7 (16.0–195) %
Part B Cohort 1 (6.0 GBq, reduced to 4.5 GBq after three patients; 300 µg), image-based dosimetry, n = 6
  Cycle 1 ADC, Bone marrow: 0.1 (0.1–0.6) Gy/GBq
Part B Cohort 1 (6.0 GBq, reduced to 4.5 GBq after three patients; 300 µg), n = 1
  Cycle 1 ADC, Liver: 0.2 (0.2–0.2) Gy/GBq
Part B Cohort 1 (6.0 GBq, reduced to 4.5 GBq after three patients; 300 µg), n = 5
  Cycle 1 ADC, Tumours: 3.9 (1.9–83.3) Gy/GBq
[8]
  Cycle 1 ADC, Kidneys: 0.7 (0.6–1.0) Gy/GBq
  Cycle 1 ADC, Spleen: 1.0 (0.5–1.1) Gy/GBq
[9]
  Cycle 3 ADC, Bone marrow: 0.1 (0.1–0.1) Gy/GBq
  Ratio of Cycle 3/ Cycle 1 ADCs, Bone marrow: 64.3 (64.3–64.3) %
Part B Cohort 1, n = 1
  Cycle 3 ADC, Kidneys: 0.7 (0.7–0.7) Gy/GBq
  Cycle 3 ADC, Spleen: 0.5 (0.5–0.5) Gy/GBq
  Ratio of Cycle 3/ Cycle 1 ADCs, Kidneys: 111 (111–111) %
  Ratio of Cycle 3/ Cycle 1 ADCs, Spleen: 82.3 (82.3–82.3) %
Part B Cohort 3 (4.5 GBq, 300 µg), image-based dosimetry, n = 6
  Cycle 1 ADC, Bone marrow: 0.1 (0.1–0.1) Gy/GBq
Part B Cohort 3 (4.5 GBq, 300 µg), n = 6
  Cycle 1 ADC, Spleen: 1.0 (0.2–1.5) Gy/GBq
[10]
  Cycle 1 ADC, Kidneys: 0.9 (0.5–1.2) Gy/GBq
  Cycle 1 ADC, Tumours: 6.8 (2.1–28.2) Gy/GBq
Part B Cohort 3 (4.5 GBq, 300 µg; 700 µg at cycle 2), image-based dosimetry, n = 6
  Cycle 3 ADC, Bone marrow: 0.1 (0.0–0.1) Gy/GBq
Part B Cohort 3 (4.5 GBq, 300 µg; 700 µg at cycle 2), n = 5
  Cycle 3 ADC, Spleen: 0.8 (0.3–1.1) Gy/GBq
